Results on 32 molecules are retold here after patent US20210145976A1 (ARO BIOTHERAPEUTICS, published 2021).

Residue numbers refer to the chain shown, from its start.

Experiment [1] deals with T1, recombinant biotinylated CD71 extracellular domain (Sino Biologics) with an N-terminal 6His tag (human, UniProt P02786 89-760, biotinylated (sites not given)).
T1 construct: extracellular domain; also called hCD71; huCD71
The experiment can be described thus: screening ELISA, ratio. Background: In an ELISA, binding on a coated surface is turned into a signal by an enzyme label.

Experiment [2] addresses T1, recombinant biotinylated CD71 …. Put plainly: screening ELISA.

T1 sequence (P02786 other isoform, or with tags, fused parts or gaps): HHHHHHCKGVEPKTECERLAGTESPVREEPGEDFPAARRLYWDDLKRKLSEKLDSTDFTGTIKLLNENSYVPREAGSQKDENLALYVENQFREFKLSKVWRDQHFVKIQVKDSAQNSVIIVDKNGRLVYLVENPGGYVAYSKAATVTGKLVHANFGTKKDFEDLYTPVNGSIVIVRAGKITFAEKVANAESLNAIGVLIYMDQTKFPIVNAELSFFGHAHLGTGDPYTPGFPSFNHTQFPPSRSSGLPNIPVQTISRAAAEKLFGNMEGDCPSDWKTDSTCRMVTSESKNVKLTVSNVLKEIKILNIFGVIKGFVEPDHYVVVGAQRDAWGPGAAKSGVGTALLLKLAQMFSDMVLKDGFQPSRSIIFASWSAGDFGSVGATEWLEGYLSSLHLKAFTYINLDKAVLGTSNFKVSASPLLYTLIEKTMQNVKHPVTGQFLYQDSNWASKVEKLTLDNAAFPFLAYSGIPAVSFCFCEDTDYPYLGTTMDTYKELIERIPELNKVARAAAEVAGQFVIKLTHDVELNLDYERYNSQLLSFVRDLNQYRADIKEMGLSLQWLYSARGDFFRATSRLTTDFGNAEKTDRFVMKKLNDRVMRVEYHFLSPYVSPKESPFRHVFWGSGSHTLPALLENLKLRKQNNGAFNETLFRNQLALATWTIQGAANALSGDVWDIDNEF

B1: SEQ ID NO 301 (designed binder)
chain: MLPAPKNLVVSRVTEDSARLSWTAPDAAFDSFEIEYDEPYRGGEAIVLTVPGSERSYDLTSLKPGTEYPVSIGGVKGGITSDPLSAIFTT
notes: FN3 domain
As to B1, the “hCD71:HSA” value in experiment [1] was found to be 55. In addition, the hCD71 in experiment [2] was determined as 660000.

B2: SEQ ID NO 309 (designed binder)
chain: MLPAPKNLVVSRVTEDSARLSWTAPDAAFDSFIIDYLELDQEGEAIVLTVPGSERSYDLTGLKPGTEYAVYIFGVKGGYPSTPLSAIFTT
notes: FN3 domain
Regarding B2, the “hCD71:HSA” value in experiment [1] was 1100. Moreover, in experiment [2], the hCD71 was found to be 3.14e+06.

B3: SEQ ID NO 229 (designed binder)
chain: MLPAPKNLVVSRVTEDSARLSWTAPDAAFDSFSIHYDEDWRRGEAIVLTVPGSERSYDLTGLKPGTEYLVEIPGVKGGKASYPLSAIFTT
notes: FN3 domain
On to B3, for which the “hCD71:HSA” value in experiment [1] came out at 154. Moreover, the hCD71 in experiment [2] worked out at 570000.

B4: SEQ ID NO 232 (designed binder)
chain: MLPAPKNLVVSRVTEDSARLSWTAPDAAFDSFTIAYDETLNLGEAIVLTVPGSERSYDLTGLKPGTEYIVGIFGVKGGTHSWPLSAIFTT
notes: FN3 domain
For the molecule B4, the “hCD71:HSA” value in experiment [1] is 629. For the same molecule, the hCD71 in experiment [2] was 1.7e+06.

B5: SEQ ID NO 253 (designed binder)
chain: B4 chain with A35E, D37W, L40I, N41G, L42G, I69Y, F73Y, T79W, H80W, W82R
notes: FN3 domain
As for B5, in experiment [1], the “hCD71:HSA” value came to 1140. Moreover, the hCD71 in experiment [2] was 2.8e+06.

B6: SEQ ID NO 273 (designed binder)
chain: MLPAPKNLVVSRVTEDSARLSWTAPDAAFDSFTIFKDGEAIVLTVPGSERSYDLTGLKPGTEYYVYIYGVKGGYPSKPLSAIFTT
notes: FN3 domain
Consider B6, for which, in experiment [1], the “hCD71:HSA” value worked out at 508. Also, the hCD71 in experiment [2] turned out to be 4.65e+06.

B7: SEQ ID NO 281 (designed binder)
chain: MLPAPKNLVVSRVTEDSARLSWTAPDAAFDSFYIDYDEIHDWGEAIVLTVPGSERSYDLTGLKPGTEYAVQIGGVKGGSFSWTLSAIFTT
notes: FN3 domain
As for B7, the “hCD71:HSA” value in experiment [1] is 48. Also, the hCD71 in experiment [2] stood at 1.07e+06.

B8: SEQ ID NO 269 (designed binder)
chain: MLPAPKNLVVSRVTEDSARLSWTAPDAAFDSFHINYAEVYTKGEAILLTVPGSERSYDLTGLKPGTEYEVYIPGVKGGPFSRPLNAQFTT
notes: FN3 domain
On to B8, for which the “hCD71:HSA” value in experiment [1] is 166. Also, in experiment [2], the hCD71 was determined as 690000.

B9: SEQ ID NO 244 (designed binder)
chain: MLPAPKNLVVSRVTEDSARLSWTAPDAAFDSFHIDYSEFHLRGEAIVLTVPGSERSYDLTGLKPGTEYLGIFGVKGGEQSGPLSAIFTT
notes: FN3 domain
B9: the “hCD71:HSA” value in experiment [1] turned out to be 330. In experiment [2], the hCD71 was found to be 545000.

B10: SEQ ID NO 274 (designed binder)
chain: MLPAPKNLVVSRVTEDSVRLSWTAPDAAFDSFAISYEEWWVHGEAIVLTVPGSERSYDLTGLKPGTEYSVVIPGVKGGLYSWTLSAISTT
notes: FN3 domain
With B10, in experiment [1], the “hCD71:HSA” value was determined as 44. Further, the hCD71 in experiment [2] worked out at 522000.

B11: SEQ ID NO 290 (designed binder)
chain: MLPAPKNLVVSRVTEDSARLSWTAPDAAFDSFFYLEQAWGGEAIVLTVPGSERSYDLTGLKPGTEYWVEITGVKGGYASSPLSAIFTT
notes: FN3 domain
Consider B11, for which the “hCD71:HSA” value in experiment [1] turned out to be 237. In experiment [2], the hCD71 is 2.81e+06.

B12: SEQ ID NO 230 (designed binder)
chain: MLPAPKNLVVSRVTEDSARLSWTAPDAAFDSFQIRYPKRWISGEAIVLTVPGSERSYDLTGLKPGTEYEVVIRGVKGGEYSWPLSAIFTT
notes: FN3 domain
For B12, in experiment [1], the “hCD71:HSA” value was found to be 1050. The hCD71 in experiment [2] was 2e+06.

B13: SEQ ID NO 247 (designed binder)
chain: MLPAPKNLVVSRVTEDSARLSWTAPDAAFDSFYIEWTYKGEAIVLTVPGSERSYDLTGLKPGTEYFVGIPGVKGGKSSYPLSAIFTT
notes: FN3 domain
For the molecule B13, the “hCD71:HSA” value in experiment [1] was determined as 17. In addition, in experiment [2], the hCD71 was 916000.

B14: SEQ ID NO 231 (designed binder)
chain: MLPAPKNLVVSRVTEDSARLSWTAPDAAFDSFEIPYIETVALGEAIVLTVPGSERSYDLTGLKPGTEYYVEIYGVKGGSYSYPLSAISTT
notes: FN3 domain
For B14, the “hCD71:HSA” value in experiment [1] worked out at 86. In addition, the hCD71 in experiment [2] stood at 2.27e+06.

B15: SEQ ID NO 297 (designed binder)
chain: MLPAPKNLVVSRVTEDSARLSWTAPDAAFDSFLIPYAETSPSGEAITLFVPGSERSYDLTGLKPGTEYNVVIQGVKGGRPSNPLVAASTT
notes: FN3 domain
On to B15, for which the “hCD71:HSA” value in experiment [1] was 49. The hCD71 in experiment [2] was 2.59e+06.

B16: SEQ ID NO 308 (designed binder)
chain: MLPAPKNLVVSEVTEDSARLSWQGVARAFDSFLITYREQIFAGEVIVLTVPGSERSYDLTGLKPGTEYPVWIQGVKGGSPSAPLSAISTT
notes: FN3 domain
Take B16: the “hCD71:HSA” value in experiment [1] is 50. Besides, in experiment [2], the hCD71 stood at 609000.

B17: SEQ ID NO 294 (designed binder)
chain: MLPAPKNLVVSRVTEDSARLSWTAPDAAFDSFSIIYSEWNVTGEAIVLTVPGSERSYDLTGLKPGTEYDVWIEGVKGGGMSKPLSAISTT
notes: FN3 domain
Take B17: the “hCD71:HSA” value in experiment [1] worked out at 174. Besides, in experiment [2], the hCD71 was 1.44e+06.

B18: SEQ ID NO 248 (designed binder)
chain: MGSLPAPKNLVVSRVTEDSARLSWTAPDAAFDSFAIPYAEPSPTGEAIVLTVPGSERSYDLTGLKPGTEYPVWIQGVKGGSPSAPLSAEFTT
notes: FN3 domain
Regarding B18, in experiment [1], the “hCD71:HSA” value was 55. In experiment [2], the hCD71 is 832000.

B19: SEQ ID NO 241 (designed binder)
chain: MLPAPKNLVVSRVTEDSARLSWTAPDAAFDSFNIYYYEWFVSGEAIVLTVPGSERSYDLTGLKPGTEYFVDIDGVKGGYRSRPLSAIFTT
notes: FN3 domain
Consider B19, for which, in experiment [1], the “hCD71:HSA” value stood at 1230. Moreover, the hCD71 in experiment [2] was found to be 2.7e+06.

B20: SEQ ID NO 286 (designed binder)
chain: B19 chain with Y37P, W39F, F40P, S42R, F69V, D71S, D73W, Y79T, R80Q, R82W
notes: FN3 domain
Take B20: the “hCD71:HSA” value in experiment [1] was determined as 118. For the same molecule, in experiment [2], the hCD71 was found to be 1.27e+06.

B21: SEQ ID NO 83 (designed binder)
chain: B19 chain with N33Y, W39S, F40S, V41G, S42T, D73G, Y79S, R80Y, R82L
notes: FN3 domain
In the case of B21, in experiment [1], the “hCD71:HSA” value was determined as 1480. Also, the hCD71 in experiment [2] amounted to 1.93e+06.

B22: SEQ ID NO 239 (designed binder)
chain: MLPAPKNLVVSRVTEDSARLSWTAPDAAFDSFAITYYEGRWRGEAIVLTVPGSERSYDLTGLKPGTEYGVPIRGVKGGTGSLPLSAIFTT
notes: FN3 domain
For B22, the “hCD71:HSA” value in experiment [1] came out at 83. Besides, the hCD71 in experiment [2] came out at 419000.

B23: SEQ ID NO 277 (designed binder)
chain: B22 chain with A33W, T35N, R40I, W41G, R42E, G69Y, P71D, R73S, T79S, G80Y
notes: FN3 domain
As for B23, the “hCD71:HSA” value in experiment [1] was 598. Moreover, the hCD71 in experiment [2] came to 3.11e+06.

B24: SEQ ID NO 260 (designed binder)
chain: MLPAPKNLVVSRVTEDSARLSWTAPDAAFDSFNISYYEYFVHGEAIVLTVPGSERSYDLTGLKPGTEYYVIDGVKGGDPSEPLSAIFTT
notes: FN3 domain
B24: the “hCD71:HSA” value in experiment [1] turned out to be 90. Besides, the hCD71 in experiment [2] came to 1.3e+06.

B25: SEQ ID NO 292 (designed binder)
chain: MLPAPKNLVVSRVTEDSARLSWTAPDAAFDSFDIAYWELTPSGEAIELLVPGSERSYDLTGLKPGTEYRVDIIGVKGGFISEPLGATFTT
notes: FN3 domain
As to B25, in experiment [1], the “hCD71:HSA” value was determined as 296. The hCD71 in experiment [2] is 2.62e+06.

B26: SEQ ID NO 249 (designed binder)
chain: MLPAPKNLVVSRVTEDSARLSWTAPDAAFDSFSIDYFESVGFGEAIVLTVPGSERSYDLTGLKPGTEYDVQITGVKGGPHSLPLSAIFTT
notes: FN3 domain
As for B26, in experiment [1], the “hCD71:HSA” value turned out to be 148. The hCD71 in experiment [2] was determined as 1.05e+06.

B27: SEQ ID NO 299 (designed binder)
chain: B26 chain with S33L, D35E, F37W, F42Y, D69W, Q71G, T73Y, P79Y, H80Y, L82R
notes: FN3 domain
Turning to B27, in experiment [1], the “hCD71:HSA” value turned out to be 1940. In experiment [2], the hCD71 worked out at 4.27e+06.

B28: SEQ ID NO 291 (designed binder)
chain: MLPAPKNLVVSRVTEDSARLSWTAPDAAFDSFHIEYEEPETEGEAIYLHVPGSERSYDLTGLKPGTEYKVLIRGVKGGSYSIPLQAPFTT
notes: FN3 domain
Consider B28, for which the “hCD71:HSA” value in experiment [1] worked out at 1780. Further, the hCD71 in experiment [2] was determined as 3.83e+06.

B29: SEQ ID NO 266 (designed binder)
chain: MLPAPKNLVVSRVTEDSARLSWTAPDAAFDSFMIRYQEGTRWGEAIVLTVPGSERSYDLTGLKPGTEYIVMIAGVKGGQISLPLSAIFTT
notes: FN3 domain
As to B29, the “hCD71:HSA” value in experiment [1] was 337. Besides, the hCD71 in experiment [2] was determined as 894000.

B30: SEQ ID NO 270 (designed binder)
chain: B29 chain with M33L, G39W, T40Q, I69T, M71H, Q79M, I80L
notes: FN3 domain
Regarding B30, the “hCD71:HSA” value in experiment [1] came to 754. Also, the hCD71 in experiment [2] came out at 1.81e+06.

B31: SEQ ID NO 234 (designed binder)
chain: MLPAPKNLVVSRVTEDSARLSWTAPDAAFDSFYITYWETWDYGEAIVLTVPGSERSYDLTGLKPGTEYKVPITGVKGGGPSVPLSAIFTT
notes: FN3 domain
For the molecule B31, the “hCD71:HSA” value in experiment [1] stood at 94. Moreover, the hCD71 in experiment [2] worked out at 680000.

B32: SEQ ID NO 242 (designed binder)
chain: B31 chain with Y33P, T35K, W37L, T39W, D41S, Y42W, K69R, T73S, P80M, V82G
notes: FN3 domain
In the case of B32, the “hCD71:HSA” value in experiment [1] worked out at 178. For the same molecule, the hCD71 in experiment [2] came to 872000.
